Experiments:
[1] = biological target: eukaryotic elongation factor 2 kinase (UniProt O00418)
[2] = biological target: eukaryotic elongation factor 2 kinase (UniProt O00418); remark: listed apart in the source

Sequence of eukaryotic elongation factor 2 kinase (O00418 whole entry): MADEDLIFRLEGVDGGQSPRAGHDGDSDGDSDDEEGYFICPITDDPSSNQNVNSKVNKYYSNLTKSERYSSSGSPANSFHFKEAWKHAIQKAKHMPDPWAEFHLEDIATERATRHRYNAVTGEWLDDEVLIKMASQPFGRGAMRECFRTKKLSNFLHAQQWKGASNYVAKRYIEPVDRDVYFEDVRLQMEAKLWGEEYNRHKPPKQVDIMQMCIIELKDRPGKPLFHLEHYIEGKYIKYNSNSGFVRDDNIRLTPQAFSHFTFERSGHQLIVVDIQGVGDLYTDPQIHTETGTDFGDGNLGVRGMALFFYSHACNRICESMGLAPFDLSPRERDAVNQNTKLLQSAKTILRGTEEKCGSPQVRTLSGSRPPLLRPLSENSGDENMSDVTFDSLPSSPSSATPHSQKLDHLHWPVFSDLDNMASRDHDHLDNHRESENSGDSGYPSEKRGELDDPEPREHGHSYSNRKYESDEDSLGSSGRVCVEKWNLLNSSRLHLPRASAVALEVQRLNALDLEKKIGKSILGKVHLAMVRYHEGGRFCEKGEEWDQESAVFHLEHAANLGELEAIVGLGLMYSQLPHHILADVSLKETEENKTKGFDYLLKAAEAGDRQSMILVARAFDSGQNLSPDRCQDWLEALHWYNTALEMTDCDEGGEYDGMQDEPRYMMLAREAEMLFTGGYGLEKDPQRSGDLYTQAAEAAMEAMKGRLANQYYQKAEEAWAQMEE

Q: Which results are given for “calmodulin, full-length (from UniProt P0DP23 1-149) (natural protein)”?
A: KCaM^app of eEF-2K (0.5 nM) activity toward 5 μM yeast eEF-2, 50 μM free Ca2+ [1]: 121 nM; KCaM (concentration of CaM at half-maximal activity) of T348-phosphorylated eEF-2K toward 150 μM peptide substrate, 50 μM free Ca2+ [2]: 67 nM

Q: “isolated C-terminal lobe of calmodulin (residues 76-148) (from UniProt P0DP23 77-149) (domain or fragment)” was tested. Which KCaM^app of eEF-2K (0.5 nM) activity toward 5 μM yeast eEF-2, 50 μM free Ca2+ [1] did it give?
A: Its KCaM^app of eEF-2K (0.5 nM) activity toward 5 μM yeast eEF-2, 50 μM free Ca2+ is 156 nM.

Q: And the KCaM (concentration of CaMC at half-maximal activity) of T348-phosphorylated eEF-2K toward 150 μM peptide substrate, 50 μM free Ca2+ [2]?
A: Its KCaM (concentration of CaMC at half-maximal activity) of T348-phosphorylated eEF-2K toward 150 μM peptide substrate, 50 μM free Ca2+ is 85 nM.
